Results published in paper PMC7607744 (2020).
No end group written: not given here.

Molecular target: T1, CD138pep (also: FITC-labeled, site not given here)
T1 chain: RKRLQVQLSIRT-NH2
Experiment: flow cytometry binding to H929 cells

B1: CD138 (Syndecan-1) (protein)
chain: QIVATNLPPEDQDGSGDDSDNFSGSGAGALQDITLSQQTPSTWKDTQLLTAIPTSPEPTGLEATAASTSTLPAGEGPKEGEAVVLPEVEPGLTAREQEATPRPRETTQLPTTHLASTTTATTAQEPATSHPHRDMQPGHHETSTPAGPSQADLHTPHTEDGGPSATERAAEDGASSQLPAAEGSGEQDFTFETSGENTAVVAVEPDRRNQSPVDQGATGASQGLLDRKEVLG
Kd: 3.1 µM
